Read-outs that look alike come from different tables or passages of the source.
Tests used:
[1] = molecular target: T1, Human IL-33 (human, UniProt O95760 95-270, limits assumed); experiment: cell-based or functional assay
T1 sequence: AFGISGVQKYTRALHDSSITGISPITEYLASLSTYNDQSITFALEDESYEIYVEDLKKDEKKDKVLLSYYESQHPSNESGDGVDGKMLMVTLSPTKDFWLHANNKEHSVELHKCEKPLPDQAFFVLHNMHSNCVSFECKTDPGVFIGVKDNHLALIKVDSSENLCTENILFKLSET

[2] = molecular target: Cynomolgus monkey IL-33 (cynomolgus monkey); experiment: cell-based or functional assay
[3] = molecular target: T1, Human IL-33; experiment: SPR (Biacore T100/T200), antibody captured on Protein A, 37° C., 1:1 model
Experimental: (§1) A CM4 chip containing immobilized Protein A (generated using standard NHS-EDC amine coupling) on all four flow cells (Fc) is used to employ a capture method. Antibody samples are prepared at 10 μg/mL in running buffer. Mouse, rat, and rabbit IL-33 samples are prepared at final concentrations of 1000, 500, 250, 125, 63, 31, 16, and 0 nM in running buffer. Human and Cynomologus IL-33 samples are prepared at final concentrations of 250, 125, 63, 31, 16, 8, 4, 2, 1, and 0 nM in running buffer. Each analysis cycle involves the steps of (1) capturing antibody samples on separate flow cells (Fc2, Fc3, or Fc4); (2) injecting 200 μL of IL-33 over all flow cells at 100 μL/min; (3) returning to buffer flow for a minimum of 10 min at 100 μL/min to monitor complex dissociation; (4) regenerating the chip surface with two sequential injections of 7.5 microliters of glycine, pH1.5; and (5) equilibrating the chip surface for 5 minutes prior to repeating the cycle. Each IL-33 concentration is injected in duplicate. Data is processed using standard double-referencing and fit to a 1:1 binding model using Biacore T100 Evaluation software, version 2.0.1, to determine the association rate (on-rate, kₒₙ, M⁻¹s⁻¹ units) and the dissociation rate (off-rate, koff, s⁻¹ units). The equilibrium dissociation constant (KD) is calculated from the relationship KD=koff/kₒₙ, and is in molar units. Three experimental replicates (n) are conducted for the binding of Antibody 43 to human and cynomolgus monkey IL-33.

[4] = molecular target: T2, Cynomolgus monkey IL-33 (cynomolgus monkey, UniProt A0A2K5W3I1 95-269); experiment: as above
T2 construct: also called Cynomolgus IL-33; Cyno-IL33
T2 sequence: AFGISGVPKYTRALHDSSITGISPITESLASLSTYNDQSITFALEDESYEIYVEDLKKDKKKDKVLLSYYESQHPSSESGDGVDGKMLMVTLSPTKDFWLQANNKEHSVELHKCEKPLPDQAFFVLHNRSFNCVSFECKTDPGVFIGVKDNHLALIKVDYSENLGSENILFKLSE
Experimental: as §1

[5] = molecular target: T1, Human IL-33; experiment: cell-based or functional assay; remark: listed apart in the source
[6] = molecular target: T2, Cynomolgus monkey IL-33; experiment: cell-based or functional assay
[7] = molecular target: T1, Human IL-33; experiment: cell-based or functional assay; remark: listed apart in the source
[8] = molecular target: T3, IL-36RA (human, UniProt Q9UBH0 2-155); experiment: SPR (BIAcore 2000), antibody captured on Protein A, analyte at 500 nM
T3 sequence (looked up): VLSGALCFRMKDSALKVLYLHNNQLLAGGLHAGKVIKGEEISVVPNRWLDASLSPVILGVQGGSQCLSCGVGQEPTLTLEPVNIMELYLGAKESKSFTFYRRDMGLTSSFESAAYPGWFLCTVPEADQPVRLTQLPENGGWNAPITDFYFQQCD
Experimental: (§2) Protein A (Calbiochem) is coupled via free amine groups to carboxyl groups on flow cells 1 and 2 of a CM5 biosensor chip (GE Healthcare) using a mixture of N-ethyl-N-(dimethylaminopropyl)-carbodiimide (EDC) and N-hydroxysuccinimide (NHS). To capture positive control antibodies, Rabbit anti-Goat IgG (Fc specific) is coupled to flow cell 3, and Rabbit anti-Rat IgG (Fc specific) is coupled to flow cell 4 (both from Jackson ImmunoResearch). Flow cells are monitored with a flow rate of 30 μL/minute using a buffer containing 0.01 M HEPES, pH 7.4, 150 mM NaCl, 0.005% surfactant P20. Antibody 43 is captured on flow cell 2 to yield a total of 300 to 800 response units (RU; results reflect flow cell 2 minus flow cell 1). Binding tests are followed by a regeneration step using glycine-HCl (pH 1.5) between each cycle. Flow cell 1 is used as a control to monitor non-specific binding of analytes tested. The exemplified antibody is tested with all analytes of the human IL-1 protein family as listed at 500 nM concentration.

[9] = molecular target: T4, IL-18 (human, UniProt Q14116 37-193); experiment: as above
T4 sequence (looked up): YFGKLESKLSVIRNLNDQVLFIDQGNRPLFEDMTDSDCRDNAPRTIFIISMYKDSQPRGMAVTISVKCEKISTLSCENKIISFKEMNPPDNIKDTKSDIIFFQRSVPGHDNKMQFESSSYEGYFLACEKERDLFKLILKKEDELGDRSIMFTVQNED
Experimental: as §2

[10] = molecular target: T5, IL-36β (human, UniProt Q9NZH7-2 5-157); experiment: as above
T5 sequence (looked up): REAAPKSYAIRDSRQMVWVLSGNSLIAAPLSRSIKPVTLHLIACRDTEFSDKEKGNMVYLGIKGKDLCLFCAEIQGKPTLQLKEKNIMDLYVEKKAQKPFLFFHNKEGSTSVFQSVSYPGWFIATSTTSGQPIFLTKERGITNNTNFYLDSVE
Experimental: as §2

[11] = molecular target: IL-1β (human, UniProt P01584 117-269); experiment: as above
Experimental: as §2

[12] = molecular target: T6, IL-1α (human, UniProt P01583 113-271); experiment: as above
T6 sequence (looked up): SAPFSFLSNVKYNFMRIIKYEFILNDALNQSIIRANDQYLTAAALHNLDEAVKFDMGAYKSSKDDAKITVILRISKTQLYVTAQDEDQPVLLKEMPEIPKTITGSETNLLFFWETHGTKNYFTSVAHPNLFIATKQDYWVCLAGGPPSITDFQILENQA
Experimental: as §2

[13] = molecular target: T7, IL-37 (human, UniProt Q9NZH6 46-218, limits assumed); experiment: as above
T7 sequence (looked up): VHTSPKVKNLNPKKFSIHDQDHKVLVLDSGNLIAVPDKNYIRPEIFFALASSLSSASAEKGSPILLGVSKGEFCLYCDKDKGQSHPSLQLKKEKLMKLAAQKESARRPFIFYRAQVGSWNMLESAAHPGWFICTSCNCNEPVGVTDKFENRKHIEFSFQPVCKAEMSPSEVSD
Experimental: as §2

[14] = molecular target: T8, IL-36γ (human, UniProt Q9NZH8 18-169); experiment: as above
T8 sequence (looked up): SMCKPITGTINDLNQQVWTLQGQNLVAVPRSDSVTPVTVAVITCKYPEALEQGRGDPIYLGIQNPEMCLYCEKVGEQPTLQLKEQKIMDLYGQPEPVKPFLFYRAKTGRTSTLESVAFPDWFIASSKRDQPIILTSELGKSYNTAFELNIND
Experimental: as §2

[15] = molecular target: IL-1RA (human, UniProt P18510 26-177); experiment: as above
IL-1RA, sequence (P18510 26-177 limits assumed): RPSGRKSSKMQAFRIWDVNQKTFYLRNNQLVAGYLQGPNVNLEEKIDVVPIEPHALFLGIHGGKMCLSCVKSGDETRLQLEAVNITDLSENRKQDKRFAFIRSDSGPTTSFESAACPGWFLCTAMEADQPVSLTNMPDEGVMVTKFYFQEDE
Experimental: as §2

[16] = molecular target: T9, IL-36α (human, UniProt Q9UHA7 6-158); experiment: as above
T9 sequence (looked up): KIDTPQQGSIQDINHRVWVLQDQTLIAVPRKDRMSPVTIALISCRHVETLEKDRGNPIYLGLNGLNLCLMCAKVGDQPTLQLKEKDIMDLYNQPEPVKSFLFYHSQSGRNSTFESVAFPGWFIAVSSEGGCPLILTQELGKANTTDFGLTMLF
Experimental: as §2

[17] = molecular target: T2, Cynomolgus monkey IL-33; experiment: SPR affinities
Experimental: as §1, with “Three experimental replicates (n) are conducted for the binding of Antibody 43 to human and cynomolgus monkey IL-33.” left out

[18] = molecular target: T1, Human IL-33; experiment: SPR (Biacore), antibody captured on Protein A, 37° C., 1:1 model
Experimental: as §1

[19] = molecular target: T2, Cynomolgus monkey IL-33; experiment: as above
Experimental: as §1

## Human monomeric ST2 (IL1RL1) (from UniProt Q01638 19-328) (receptor)
[1]
  IC50 in the in vitro NFκB-GEC-luciferase activity assay: 0.426 nM
  IC50 of inhibition of IL-33-induced GM-CSF secretion from human mast cells: 7.6 nM
[2]
  IC50 in the in vitro NFκB-GEC-luciferase activity assay: 0.175 nM

B1: Antibody 43 (antibody, human IgG4 S228P, kappa, F234A L235A, V domains shown)
VH: EVQLVETGGGLIQPGGSLRLSCAASGFTFSFYAMSWVRQAPGKGLEWVSAISGSGGSTYYADSVKGRFTISRDNSKNTLYLQMNSLRAEDTAVYYCARTIHGIRAAYDAFIIWGQGTLVTVSS
VL: EIVLTQSPGTLSLSPGERATLSCRASQSVGINLSWYQQKPGQAPRLLIYGASHRLTGIPDRFSGSGSGTDFTLTISRLEPEDFAVYYCHQYSQPPPFTFGGGTKVEIKR
notes: Derived from Antibody 54 by engineering to reduce potential immunogenicity; expressed in CHO cells; also called Ab 43; Exemplified Antibody
[3]
  Kd: 0.049 nM
  koff: 7.2e-05 s⁻¹
  kon: 1.5e+06 M⁻¹ s⁻¹
[4]
  Kd: 0.338 nM
  koff: 0.00051 s⁻¹
  kon: 1.5e+06 M⁻¹ s⁻¹
[5]
  IC50 in the in vitro NFκB-GEC-luciferase activity assay: 0.33 nM
[6]
  IC50 in the in vitro NFκB-GEC-luciferase activity assay: 1.92 nM
[7]
  IC50 of inhibition of IL-33-induced GM-CSF secretion from human mast cells: 0.3 nM
[8]
  binding result: no binding (tested: 500 nM)
[9]
  binding result: no binding (tested: 500 nM)
[10]
  binding result: no binding (tested: 500 nM)
[11]
  binding result: no binding (tested: 500 nM)
[12]
  binding result: no binding (tested: 500 nM)
[13]
  binding result: no binding (tested: 500 nM)
[14]
  binding result: no binding (tested: 500 nM)
[15]
  binding result: no binding (tested: 500 nM)
[16]
  binding result: no binding (tested: 500 nM)

B2: Antibody 75 (antibody, human IgG4 S228P, kappa, F234A L235A, V domains shown)
VH: EVQLVETGGGLIQPGGSLRLSCAASGFTFSSYAMSWVRQAPGKGLEWVSAISGSGGSTYYADSVKGRFTISRDNSKNTLYLQMNSLRAEDTAVYYCARTLHGIRAAYDAFIIWGQGTLVTVSS
VL: EIVLTQSPGTLSLSPGERATLSCRASQSVGINLSWYQQKPGQAPRLLIYGASHRATGIPDRFSGSGSGTDFTLTISRLEPEDFAVYYCHQYSQSPPFTFGGGTKVEIKR
notes: Human IgG4 antibody; 3-53 heavy chain framework and A27 light chain framework with the CDRs of Antibody 23; also called Ab 75
[5]
  IC50 in the in vitro NFκB-GEC-luciferase activity assay: 0.286 nM
[17]
  fold difference in species cross-reactivity (affinity to cynomolgus IL-33 against human IL-33): ~850 fold
[18]
  Kd: 0.0145 nM
  koff: 2.6e-05 s⁻¹
  kon: 1.7e+06 M⁻¹ s⁻¹
[19]
  Kd: 12.4 nM
  koff: 0.019 s⁻¹
  kon: 1.7e+06 M⁻¹ s⁻¹

Source: US20180118821A1 (Eli Lilly, published 2018)
